{
  "source": "patent US20200283491A1",
  "assay_in_all_cases": "cell-based or functional assay",
  "key": {"[1]": {"biological_target": "human Y1 receptor (human) (UniProt P25929)", "sequence (P25929 whole entry)": "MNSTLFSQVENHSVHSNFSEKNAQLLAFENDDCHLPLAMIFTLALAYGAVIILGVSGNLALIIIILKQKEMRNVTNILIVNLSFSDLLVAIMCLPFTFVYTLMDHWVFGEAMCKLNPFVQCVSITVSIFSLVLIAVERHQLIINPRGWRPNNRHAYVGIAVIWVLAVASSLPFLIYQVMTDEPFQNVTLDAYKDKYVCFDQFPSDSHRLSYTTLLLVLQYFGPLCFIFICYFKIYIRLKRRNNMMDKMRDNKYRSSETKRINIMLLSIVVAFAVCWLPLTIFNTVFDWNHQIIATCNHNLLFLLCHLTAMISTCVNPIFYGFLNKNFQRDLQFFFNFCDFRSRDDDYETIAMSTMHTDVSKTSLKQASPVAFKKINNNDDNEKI"}, "[2]": {"biological_target": "rhesus monkey Y2 receptor (rhesus monkey) (UniProt Q9GK74)", "sequence (Q9GK74 whole entry)": "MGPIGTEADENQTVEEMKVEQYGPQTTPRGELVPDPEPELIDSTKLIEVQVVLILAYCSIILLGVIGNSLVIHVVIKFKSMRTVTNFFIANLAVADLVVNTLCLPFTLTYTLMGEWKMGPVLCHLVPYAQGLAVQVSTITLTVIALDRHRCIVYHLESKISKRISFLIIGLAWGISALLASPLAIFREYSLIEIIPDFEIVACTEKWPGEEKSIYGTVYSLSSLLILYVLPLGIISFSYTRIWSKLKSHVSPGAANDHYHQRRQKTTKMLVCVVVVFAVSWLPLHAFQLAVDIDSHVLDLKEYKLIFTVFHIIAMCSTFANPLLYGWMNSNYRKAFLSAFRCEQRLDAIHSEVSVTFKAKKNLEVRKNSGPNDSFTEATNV"}, "rat Y2 receptor (rat)": {"biological_target": "rat Y2 receptor (rat) (UniProt Q9ERC0)", "sequence (Q9ERC0 entry or part of it)": "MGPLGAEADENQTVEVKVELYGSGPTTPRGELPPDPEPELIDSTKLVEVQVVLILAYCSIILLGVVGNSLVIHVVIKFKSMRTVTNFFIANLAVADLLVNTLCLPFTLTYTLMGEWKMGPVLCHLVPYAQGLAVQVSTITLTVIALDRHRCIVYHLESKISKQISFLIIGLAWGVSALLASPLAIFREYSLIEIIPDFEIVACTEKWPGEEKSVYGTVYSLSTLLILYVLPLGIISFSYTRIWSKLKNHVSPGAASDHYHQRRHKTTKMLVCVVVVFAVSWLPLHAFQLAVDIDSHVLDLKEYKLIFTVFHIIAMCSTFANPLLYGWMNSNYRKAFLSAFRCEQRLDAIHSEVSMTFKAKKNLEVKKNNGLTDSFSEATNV"}, "[3]": {"biological_target": "mouse Y2 receptor (mouse) (UniProt P97295)", "sequence (P97295 whole entry)": "as the sequence (Q9ERC0 entry or part of it) above, with L4V, L20P, S23P, P25H, V52I, Q163R, V175I, K247R, T266M, L371P counted along it"}},
  "data": [
    {"substance": "PYY3-36 (from UniProt P10082 31-64) (peptide)", "values": [
      {"measurement": "Human isoform potency (EC50 nM), cAMP assay", "setting": "[1]", "result": 66.4, "unit": "nM"},
      {"measurement": "Cross-species potency (EC50 nM), cAMP assay", "setting": "[2]", "result": 0.06, "unit": "nM"},
      {"measurement": "Cross-species potency (EC50 nM), cAMP assay", "setting": "rat Y2 receptor (rat)", "result": 0.5, "unit": "nM"},
      {"measurement": "Cross-species potency (EC50 nM), cAMP assay", "setting": "[3]", "result": 0.03, "unit": "nM"}
    ]}
  ]
}
